Test results published in article PMC10053881 (Pharmaceutics, 2023).
Bridge positions count the residues as written; N and C are the ends. Square brackets hold non-standard residues; d marks the D form. Peptide text beside a SMILES is read from it. * marks the point of attachment. DOTA = O=C(O)CN1CCN(CC(=O)O)CCN(CC(=O)*)CCN(CC(=O)O)CC1; dPhe(4-NHCONH2) = NC(=O)Nc1ccc(C[C@@H](N)C(=O)O)cc1; Phe(4-Cl) = N[C@@H](Cc1ccc(Cl)cc1)C(=O)O

Assay: Biodistribution in SCID mice bearing twin HEK293-SST2R and wtHEK293 tumors
Conditions: male, mouse, iv, total radioactivity, mean ± sd, n = 4; for tissue uptake at 24 h: 24 h pi; for tissue uptake at 48 h: 48 h pi; for tissue uptake at 4 h: 4 h pi
Method: Freshly harvested HEK293-SST2R cells (1.2 × 10^7cells) and wtHEK293 cells (0.6 × 10^7 cells) were suspended in physiological saline (150 μL) and inoculated in the right and left flanks, respectively, of 43 male SCID mice (23.1 ± 1.6 g body weight, six weeks of age on arrival day; NCSR “Demokritos” Animal House, Athens, Greece). Mice were kept under aseptic conditions for 12–15 days and until palpable tumors (300–600 mg) were grown at the inoculation sites. […] Animals were euthanized at 4 and 24 h pi and immediately dissected. Blood samples, organs of interest and tumors were rapidly collected, weighed and counted in the gamma counter. […] Animals were euthanized at 4, 24 and 48 h pi and the procedure described above was followed. Biodistribution data were calculated with the aid of suitable standards of the administered dose as percent of the injected activity per gram tissue (%IA/g) with excel software (Microsoft Corporation, Redmond, Washington, […], USA). Results were provided as average ± sd values, n = 4 per time point, via the PRISM^TM 6.0 GraphPad software (San Diego, CA, USA). Statistical analysis was performed as previously described.

[1] = blood, 40 pmol, Blood uptake, Lu-177 radioligands, iv 40 pmol
[2] = femur, 40 pmol, Femur uptake, Lu-177 radioligands, iv 40 pmol
[3] = in vivo, 40 pmol, Tu+ (HEK293-SST2R tumor) uptake, Lu-177 radioligands, iv 40 pmol
[4] = in vivo, 40 pmol, Tu- (wtHEK293 tumor) uptake, Lu-177 radioligands, iv 40 pmol
[5] = intestines, 40 pmol, Intestines uptake, Lu-177 radioligands, iv 40 pmol
[6] = kidneys, 40 pmol, Kidneys uptake, Lu-177 radioligands, iv 40 pmol
[7] = liver, 40 pmol, Liver uptake, Lu-177 radioligands, iv 40 pmol
[8] = lungs, 40 pmol, Lungs uptake, Lu-177 radioligands, iv 40 pmol
[9] = muscle, 40 pmol, Muscle uptake, Lu-177 radioligands, iv 40 pmol
[10] = pancreas, 40 pmol, Pancreas uptake, Lu-177 radioligands, iv 40 pmol
[11] = spleen, 40 pmol, Spleen uptake, Lu-177 radioligands, iv 40 pmol
[12] = stomach, 40 pmol, Stomach uptake, Lu-177 radioligands, iv 40 pmol
[13] = in vivo, Tu+ (HEK293-SST2R tumor) uptake, In-111 radioligands, iv 20–25 pmol
[14] = kidneys, Kidneys uptake, In-111 radioligands, iv 20–25 pmol
[15] = liver, Liver uptake, In-111 radioligands, iv 20–25 pmol
[16] = lungs, Lungs uptake, In-111 radioligands, iv 20–25 pmol
[17] = muscle, Muscle uptake, In-111 radioligands, iv 20–25 pmol
[18] = pancreas, Pancreas uptake, In-111 radioligands, iv 20–25 pmol
[19] = spleen, Spleen uptake, In-111 radioligands, iv 20–25 pmol
[20] = stomach, Stomach uptake, In-111 radioligands, iv 20–25 pmol

## C[C@@H](O)[C@@H]1NC(=O)[C@H](CCCCN)NC(=O)[C@@H](Cc2ccc(NC(N)=O)cc2)NC(=O)[C@H](Cc2ccc(O)cc2)NC(=O)[C@H](NC(=O)[C@H](Cc2ccc(Cl)cc2)NC(=O)CN2CCN(CC(=O)O)CCN(CC(=O)O)CCN(CC(=O)O)CC2)CSSC[C@@H](C(=O)N[C@H](Cc2ccc(O)cc2)C(N)=O)NC1=O [[^177Lu]Lu-DOTA-LM3, metal not drawn] ({DOTA}-[Phe(4-Cl)][dC]Y[dPhe(4-NHCONH2)]KTC[dY]-NH2; disulfide 2-7)
[1]
  tissue uptake at 24 h: 0.07 %ID/g
  tissue uptake at 48 h: 0.06 ± 0.01 %ID/g
[2]
  tissue uptake at 4 h: 1.56 ± 0.24 %ID/g
  tissue uptake at 24 h: 1.38 ± 0.18 %ID/g
  tissue uptake at 48 h: 0.88 ± 0.05 %ID/g
heart, 40 pmol, Heart uptake, Lu-177 radioligands, iv 40 pmol
  tissue uptake at 48 h: 0.13 ± 0.02 %ID/g
[3]
  tissue uptake at 4 h: 45.5 ± 1.66 %ID/g
  tissue uptake at 24 h: 37.6 ± 3.42 %ID/g
  tissue uptake at 48 h: 18.8 ± 0.88 %ID/g
[4]
  tissue uptake at 4 h: 1.66 ± 0.14 %ID/g
  tissue uptake at 24 h: 1.53 ± 0.15 %ID/g
  tissue uptake at 48 h: 0.75 ± 0.08 %ID/g
[5]
  tissue uptake at 4 h: 2.71 ± 0.18 %ID/g
  tissue uptake at 24 h: 1.52 ± 0.21 %ID/g
  tissue uptake at 48 h: 0.78 ± 0.09 %ID/g
[6]
  tissue uptake at 4 h: 11.5 ± 0.26 %ID/g
  tissue uptake at 24 h: 5.14 ± 0.92 %ID/g
  tissue uptake at 48 h: 2.47 ± 0.67 %ID/g
[7]
  tissue uptake at 4 h: 6.79 ± 0.84 %ID/g
  tissue uptake at 24 h: 3.38 ± 0.89 %ID/g
  tissue uptake at 48 h: 1.47 ± 0.05 %ID/g
[8]
  tissue uptake at 4 h: 15.7 ± 1.2 %ID/g
  tissue uptake at 24 h: 8.88 ± 0.26 %ID/g
  tissue uptake at 48 h: 5.11 ± 0.63 %ID/g
[9]
  tissue uptake at 4 h: 0.07 ± 0.01 %ID/g
  tissue uptake at 24 h: 0.05 ± 0.01 %ID/g
  tissue uptake at 48 h: 0.05 %ID/g
[10]
  tissue uptake at 4 h: 46.6 ± 2.2 %ID/g
  tissue uptake at 24 h: 23 ± 4.32 %ID/g
  tissue uptake at 48 h: 7.85 ± 0.94 %ID/g
[11]
  tissue uptake at 4 h: 0.81 ± 0.06 %ID/g
  tissue uptake at 24 h: 0.56 ± 0.07 %ID/g
  tissue uptake at 48 h: 0.4 ± 0.03 %ID/g
[12]
  tissue uptake at 4 h: 14.6 ± 1.85 %ID/g
  tissue uptake at 24 h: 8.03 ± 1.43 %ID/g
  tissue uptake at 48 h: 3.27 ± 0.34 %ID/g

## C[C@@H](O)[C@@H]1NC(=O)[C@H](CCCCN)NC(=O)[C@@H](Cc2ccc(NC(N)=O)cc2)NC(=O)[C@H](Cc2ccc(O)cc2)NC(=O)[C@H](NC(=O)[C@H](Cc2ccc(Cl)cc2)NC(=O)CN2CCN(CC(=O)O)CCN(CC(=O)O)CCN(CC(=O)O)CC2)CSSC[C@@H](C(=O)N[C@H](Cc2ccc(O)cc2)C(N)=O)NC1=O [[^111In]In-DOTA-LM3, metal not drawn] ({DOTA}-[Phe(4-Cl)][dC]Y[dPhe(4-NHCONH2)]KTC[dY]-NH2; disulfide 2-7)
[13]
  tissue uptake at 4 h: 36.4 ± 2.05 %ID/g
  tissue uptake at 24 h: 20.9 ± 3.02 %ID/g
In vivo, Tu- (wtHEK293 tumor) uptake, In-111 radioligands, iv 20–25 pmol
  tissue uptake at 24 h: 0.29 ± 0.01 %ID/g
[14]
  tissue uptake at 4 h: 15.4 ± 0.58 %ID/g
  tissue uptake at 24 h: 4.25 ± 0.77 %ID/g
[15]
  tissue uptake at 4 h: 2.04 ± 0.25 %ID/g
  tissue uptake at 24 h: 0.58 ± 0.06 %ID/g
[16]
  tissue uptake at 4 h: 3.14 ± 0.48 %ID/g
  tissue uptake at 24 h: 0.59 ± 0.12 %ID/g
[17]
  tissue uptake at 4 h: 0.08 ± 0.01 %ID/g
  tissue uptake at 24 h: 0.04 ± 0.02 %ID/g
[18]
  tissue uptake at 4 h: 9.94 ± 0.79 %ID/g
  tissue uptake at 24 h: 1.2 ± 0.14 %ID/g
[19]
  tissue uptake at 4 h: 0.46 ± 0.05 %ID/g
  tissue uptake at 24 h: 0.27 ± 0.03 %ID/g
[20]
  tissue uptake at 4 h: 0.8 ± 0.17 %ID/g
  tissue uptake at 24 h: 0.5 ± 0.09 %ID/g
